Results published in PMC5101896, “Enhanced cellular uptake of lactosomes using cell-penetrating peptides” (Science and Technology of Advanced Materials, 2016).
No end group written: not given here.

Legend:
[1] = tested on: NCI-N87 tumor; test: In vivo ICG fluorescence imaging of tumor-bearing mice; design: species or system mice (BALB/c nu/nu); conditions: tail vein injection, imaging 24 h after injection, IVIS; three mice
Description: (§1) Six-week-old male nude mice (BALB/c nu/nu) were purchased from Charles River. Five weeks before the imaging, PANC-1 cells (1 × 10^7) suspended in 100 μl of 50% Matrigel Matrix (Corning Life Sciences, Corning, New York USA) in phosphate buffered saline was subcutaneously inoculated into the front left leg of mice. Two weeks after the first transplantation, NCI-N87 cells (4 × 10^6) were suspended in the Matrigel solution and subcutaneously inoculated into the front right leg of mice. Three weeks after the second transplantation, CPP/TPP/ICG-lactosomes were injected into the tumor-bearing mouse via the tail vein. After 24 h, ICG fluorescence images were taken using the IVIS spectrum system (excitation at 745 nm and emission at 840 ± 10 nm, field of view = 12.5 cm (width and height), f/stop = 2, binning = 4, and exposure time at 3 s). During the imaging process, the mice were anesthetized using 3.0% isoflurane gas in oxygen flow (0.5 l min^–1).

[2] = tested on: PANC-1 tumor; test: as above; design: species or system mice (BALB/c nu/nu); conditions: tail vein injection, imaging 24 h after injection, IVIS; three mice
Description: as §1

[3] = Particle size and polydispersity by dynamic light scattering (DLS); assay type: physicochemical; conditions: Zetasizer Nano ZSP, n = 3, mean ± standard deviation; for Diameter: lactosomes in saline
Description: (§2) A chloroform solution containing the (PSar25)3-block-PLLA35 (100 nmol, […]) with 4 mol% of TPP (Wako Pure Chemical, Osaka, Japan), 2 mol% of ICG-PLLA34, and 10 mol% maleimide-PSar56-PLLA30 was evaporated under reduced pressure to remove the solvent, forming a thin film on the surface of the glass test tube. Saline (Otsuka normal saline, Otsuka Pharmaceutical Factory, Tokushima, Japan) (50 μl) was added to the test tube, which was then placed at room temperature for 5 min. Then, 50 μl of the saline solution containing 50 nmol CPP and 10 nmol Tris(2-carboxyethyl)phosphine hydrochloride (Nacalai Tesque, Kyoto, Japan) was added to the solution (50 μl) in the test tube and stirred for 12 h at room temperature. In this procedure, lactosome formation and TPP encapsulation by the lactosome were expected. At the same time, maleimide-PSar56-PLLA30 in the lactosome is expected to react with CPP, which contains a cysteine residue at its C-terminus (Table 1). This lactosome mixture was diluted with 400 μl of saline, and passed through a 0.1 μm syringe filter (Membrane Solutions, Dallas, USA) to remove large aggregates. Low molecular weight molecules were excluded from the mixture using Amicon Ultra-0.5 (MWCO 50 kDa, Merck Millipore, Darmstadt, Germany). To analyze concentrations of CPP, TPP and ICG-PLLA34, absorption spectra of the lactosome complexes were measured using a BioSpec spectrometer (Shimadzu, Kyoto, Japan). The particle size, size distribution, polydispersity index (PDI), and zeta potential were measured by Zetasizer Nano ZSP (Malvern Instruments, Malvern, UK).
(§3) The particle sizes of lactosome complexes were measured by dynamic light scattering (DLS). The average particle sizes of the CPP-modified lactosomes were 36–49 nm, which were slightly larger than the unmodified lactosomes (34.2 nm) (Table 2, Figure 1(b)). The zeta potential value of CPP-modified lactosomes (e.g. Pep1-modified lactosome: 1.7 mV, EB1-modified lactosome: 1.6 mV) was higher than that of the unmodified lactosomes (–4.6 mV) (Table 2). The increase in the zeta potential seems to be due to positively charged CPPs.

[4] = Zeta potential by laser Doppler electrophoresis; assay type: physicochemical; conditions: Zetasizer Nano ZSP, n = 3, mean ± standard deviation
Description: as §2, §3

[5] = tested on: NCI-N87 cells; test: Photoinduced cell killing (PDT treatment) with CPP/TPP-lactosomes, Cell Counting Kit-8; assay type: cell-based, human; conditions: 1.5 h at 37°C in T buffer, irradiation 340–390 nm, 200 mW cm^–2, 100 s, then 24 h culture, n = 3
Description: NCI-N87 cells were cultured at 37°C under 5% CO2 in RPMI1640 medium (Wako Pure Chemical) supplemented with 10% FBS, 100 units ml^–1 penicillin, and 100 μg ml^–1 streptomycin. NCI-N87 cells were seeded at a density of 4 × 10^4 cells/well in a 96-well plate, and incubated at 37°C for two days before treatment with the lactosome complex. CHO cells were cultured and seeded as described above. The effect of treatment with the TPP-loaded lactosomes and light on cell viability, which is related to PDT efficacy, was evaluated as follows: TPP-loaded lactosomes modified with CPPs (Pep1 or EB1) dissolved in 200 μl of T buffer (20 mM HEPES-KOH (pH 7.4), 115 mM NaCl, 5.4 mM KCl, 1.8 mM CaCl2, 0.8 mM MgCl2, and 13.8 mM glucose) were added to NCI-N87 cells (70% confluent) in the 96-well plate. The cells were incubated at 37°C for 1.5 h. After the lactosome solution was exchanged for T buffer, the cells were irradiated at 340–390 nm at 200 mW cm^–2 for 100 s. After irradiation, the cells were further incubated for 24 h at 37°C under 5% CO2 in the medium. Then, the cell medium was exchanged for the solution containing 10 μl of Cell Counting Kit-8 solution and 90 μl of RPMI1640 medium, and the cells were incubated at 37°C for 2 h. The cell viability was measured by the absorbance at 450 nm using a microplate reader SunriseR. […]

[6] = tested on: CHO cells; test: Cellular uptake of ICG-labeled CPP-modified lactosomes; assay type: cell-based, Chinese hamster; conditions: for Cellular uptake level (in words): 10 nmol lactosome complexes, ICG fluorescence intensity divided by cell viability; for Cellular localization (co-localization with LysoTracker Green): 2 μM LysoTracker Green, further 3 h incubation; for ICG fluorescence in cells by fluorescence microscopy, compared to lactosomes without CPP: after washing
Description: CHO cells were cultured at 37°C under 5% CO2 in Ham’s F12 medium (Wako Pure Chemical) supplemented with 10% fetal bovine serum (FBS, Nichirei Biosciences, Tokyo Japan), 100 units ml^–1 penicillin (Gibco; Thermo Fisher Scientific, Waltham, Massachusetts, USA), and 100 μg ml^–1 streptomycin (Gibco; Thermo Fisher Scientific). The cells were seeded at a density of 2 × 10^4 cells/well in the 96-well plate, and incubated at 37°C under 5% CO2 overnight. The cells were then incubated at 37°C for 2 h with ICG-labeled lactosomes modified with CPPs (Tat, PTD4, DPV3, MPG^ΔNLS, R9MPG, Pep1, or EB1) dissolved in 200 μl T buffer. The lactosome solution was exchanged for Ham’s F12 medium before the fluorescence imaging. The cellular fluorescence images were obtained by fluorescence microscopy using an Olympus IX71 microscope (Olympus, Tokyo, Japan) with a 40 × objective lens and a U-DM-CY7–3 mirror unit.
LysoTracker Green (Thermo Fisher Scientific) was used for investigating cellular localization of CPP-modified lactosomes. After incubation of the cells with CPP-modified ICG-labeled lactosomes, the lactosome solution was exchanged with Ham’s F12 medium containing 2 μM LysoTracker Green. The cells were further incubated for 3 h. Then, the cell medium was replaced with Ham’s F12 medium, and fluorescence images were obtained.
To evaluate the cellular uptake of the lactosome complexes, the ICG fluorescence images were obtained using an IVIS spectrum system (Xenogen, Hopkinton, Massachusetts USA) with a filter set specific for ICG (excitation at 745 nm and emission at 840 ± 10 nm). The ICG fluorescence intensity was estimated from the photon counts of the images. Then, the cell medium was replaced with solution containing 10 μl of Cell Counting Kit-8 solution (Dojindo, Kumamoto, Japan) and 90 μl of Ham’s F12 medium, and the cells were incubated for an additional 1.5 h. After incubation, the cell viability was measured by absorbance at 450 nm using the microplate reader SunriseR (Tecan Japan, Kanagawa, Japan). Lactosome uptake levels were calculated by dividing ICG fluorescence intensity by cell viability of each well.

| Substance | Diameter [3] [nm] | PDI (polydispersity index) [3] | Zeta potential [4] [mV] | other results |
| --- | --- | --- | --- | --- |
| LIRLWSHLIHIWFQNRRLKWKKK-C [EB1/TPP/ICG-lactosomes, lactosome complex containing EB1, TPP, and ICG] |  |  |  | Accumulation in NCI-N87 tumor (ICG fluorescence) [1]: accumulated in NCI-N87 tumors and liver; Accumulation in PANC-1 tumor (ICG fluorescence) [2]: only slight ICG fluorescence was detected |
| RRRRRRRRRGALFLAFLAAALSLMG-C (RRRRRRRRRGALFLAFLAAALSLMGC; also: C-terminal Cys linked via maleimide to PSar56-PLLA30 (lactosome)) [R9MPG, A3B-type lactosome modified with the CPP R9MPG via maleimide-PSar56-PLLA30] | 43.9±1.5 | 0.22±0.01 | −2.7±0.9 |  |
| LIRLWSHLIHIWFQNRRLKWKKK-C [EB1/TPP-lactosomes, EB1-modified lactosome loaded with the photosensitizer TPP] |  |  |  | Killing of NCI-N87 cells compared to the experiment without CPP/TPP-lactosomes [5]: 89% |
| RKKRRRESRKKRRRES-C (RKKRRRESRKKRRRESC; also: C-terminal Cys linked via maleimide to PSar56-PLLA30 (lactosome)) [DPV3, A3B-type lactosome modified with the CPP DPV3 via maleimide-PSar56-PLLA30] | 37.0±0.4 | 0.12±0.01 | −3.7±0.3 |  |
| GALFLGFLGAAGSTMGAWSQPKSKRKV-C [MPG^ΔNLS, A3B-type lactosome modified with the CPP MPG^ΔNLS via maleimide-PSar56-PLLA30] | 49.1±0.5 | 0.29±0.02 | −2.9±0.6 |  |
| YGRKKRRQRRR-C [Tat, A3B-type lactosome modified with the CPP Tat via maleimide-PSar56-PLLA30] | 36.2±0.3 | 0.10±0.01 | −3.6±0.1 |  |
| YARAAARQARA-C [PTD4, A3B-type lactosome modified with the CPP PTD4 via maleimide-PSar56-PLLA30] | 37.0±0.4 | 0.14±0.02 | −4.2±0.3 |  |
| KETWWETWWTEWSQPKKKRKV-C [Pep1/TPP-lactosomes, Pep1-modified lactosome loaded with the photosensitizer TPP] |  |  |  | Killing of NCI-N87 cells compared to the experiment without CPP/TPP-lactosomes [5]: 67% |
| KETWWETWWTEWSQPKKKRKV-C [Pep1, A3B-type lactosome modified with the CPP Pep1 via maleimide-PSar56-PLLA30] | 37.7±0.6 | 0.13±0.02 | 1.7±0.1 | Cellular uptake level relative to the EB1-modified lactosomes ([6]; 10 nmol lactosome complexes in T buffer, 2 h, 37°C, ICG fluorescence intensity (IVIS, ex 745 nm, em 840 nm) divided by cell viability (Cell Counting Kit-8), mean, n = 4): 0.62; Cellular uptake level (in words) ([6]; 2 h, 37°C): highly internalized; Cellular localization (co-localization with LysoTracker Green) [6]: localized mainly in acidic organelles, including endosomes and lysosomes; ICG fluorescence in cells by fluorescence microscopy, compared to lactosomes without CPP ([6]; 2 h, 37°C): significantly strong ICG fluorescence |
| LIRLWSHLIHIWFQNRRLKWKKK-C (LIRLWSHLIHIWFQNRRLKWKKKC; also: C-terminal Cys linked via maleimide to PSar56-PLLA30 (lactosome)) [EB1, A3B-type lactosome modified with the CPP EB1 via maleimide-PSar56-PLLA30] | 38.3±0.2 | 0.12±0.01 | 1.6±0.3 | Cellular uptake level (in words) ([6]; 2 h, 37°C): most abundantly internalized; Cellular localization (co-localization with LysoTracker Green) [6]: localized mainly in acidic organelles, including endosomes and lysosomes; ICG fluorescence in cells by fluorescence microscopy, compared to lactosomes without CPP ([6]; 2 h, 37°C): significantly strong ICG fluorescence |
